± gives the standard deviation of the averaged measurements.
B1: library; a variant is named by its letters at N, in order (parent)
chain: GCUGUCACCGGUGUAUUACCCUAGUGGUCGACCGGUCUGAUGAGUCUNNNNNNAGACGAAACAGC

What was measured:
hypoxanthine [1] = variants of: B1; test: normalized RNA/DNA level with ligand (relative to sTRSVctl = 100) (log10 (% of sTRSVctl)); ligand: hypoxanthine (xanthine aptamer); higher = less ribozyme self-cleavage, higher mRNA level; settings: ligand concentration (+) RNA-Seq: 5 mM, HEK293T, reporter: mCherry (pCS4076), ligand present: yes
Summary of the method: (§1)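 RNA level was computed as RNA reads over DNA reads divided by a spiked-in non-cleaving sequence or by the top sequences, then scaled and log-transformed. Scaling was ×100 with log10, the top group was 25 sequences, and the threshold was ≥100 DNA reads. The reads came from HEK293T cells transfected at 4 µg per 6-well well with ribozyme switch library plasmids (mCherry, or eGFP in some ligand experiments). Total RNA was extracted with EDTA 72 h after transfection, with any ligand added 1 h before it.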

hypoxanthine [2] = variants of: B1; test: normalized RNA/DNA level without ligand (relative to sTRSVctl = 100) (log10 (% of sTRSVctl)); ligand: hypoxanthine (xanthine aptamer); higher = less ribozyme self-cleavage, higher mRNA level; settings: HEK293T, reporter: mCherry (pCS4076), ligand present: no
Summary of the method: as §1

Row | Variant | normalized RNA/DNA level with ligand (log10) (hypoxanthine [1]) | normalized RNA/DNA level without ligand (log10) (hypoxanthine [2])
1 | GCUGUCACCGGUGUAUUACCCUAGUGGUCGACCGGUCUGAUGAGUCUGAUAUCAGACGAAACAGC [GAUAUC] | 1.91 ± 0.03 | 1.908 ± 0.0029
2 | GCUGUCACCGGUGUAUUACCCUAGUGGUCGACCGGUCUGAUGAGUCUUAUAUCAGACGAAACAGC [UAUAUC] | 1.94 ± 0.044 | 1.936 ± 0.0031
3 | GCUGUCACCGGUGUAUUACCCUAGUGGUCGACCGGUCUGAUGAGUCUGAUACUAGACGAAACAGC [GAUACU] | 1.94 ± 0.069 | 1.87 ± 0.029
4 | GCUGUCACCGGUGUAUUACCCUAGUGGUCGACCGGUCUGAUGAGUCUGAUACCAGACGAAACAGC [GAUACC] | 1.95 ± 0.03 | 1.875 ± 0.016
5 | GCUGUCACCGGUGUAUUACCCUAGUGGUCGACCGGUCUGAUGAGUCUCAUACAAGACGAAACAGC [CAUACA] | 1.9 ± 0.069 | 1.78 ± 0.051
6 | GCUGUCACCGGUGUAUUACCCUAGUGGUCGACCGGUCUGAUGAGUCUCAUACUAGACGAAACAGC [CAUACU] | 1.92 ± 0.04 | 1.83 ± 0.052
7 | GCUGUCACCGGUGUAUUACCCUAGUGGUCGACCGGUCUGAUGAGUCUCAUACCAGACGAAACAGC [CAUACC] | 1.93 ± 0.023 | 1.891 ± 0.016
8 | GCUGUCACCGGUGUAUUACCCUAGUGGUCGACCGGUCUGAUGAGUCUUAUACCAGACGAAACAGC [UAUACC] | 1.95 ± 0.12 | 1.88 ± 0.014
9 | GCUGUCACCGGUGUAUUACCCUAGUGGUCGACCGGUCUGAUGAGUCUUAUACGAGACGAAACAGC [UAUACG] | 1.83 ± 0.042 | 1.686 ± 0.008
10 | GCUGUCACCGGUGUAUUACCCUAGUGGUCGACCGGUCUGAUGAGUCUGAUAGCAGACGAAACAGC [GAUAGC] | 1.87 ± 0.025 | 1.55 ± 0.097
11 | GCUGUCACCGGUGUAUUACCCUAGUGGUCGACCGGUCUGAUGAGUCUGAUAGUAGACGAAACAGC [GAUAGU] | 1.88 ± 0.059 | 1.72 ± 0.034
12 | GCUGUCACCGGUGUAUUACCCUAGUGGUCGACCGGUCUGAUGAGUCUAAUAUCAGACGAAACAGC [AAUAUC] | 1.95 ± 0.055 | 1.945 ± 0.0067
13 | GCUGUCACCGGUGUAUUACCCUAGUGGUCGACCGGUCUGAUGAGUCUCAUAUAAGACGAAACAGC [CAUAUA] | 1.9 ± 0.027 | 1.73 ± 0.028
14 | GCUGUCACCGGUGUAUUACCCUAGUGGUCGACCGGUCUGAUGAGUCUCAUAUCAGACGAAACAGC [CAUAUC] | 1.95 ± 0.0088 | 1.9 ± 0.012
15 | GCUGUCACCGGUGUAUUACCCUAGUGGUCGACCGGUCUGAUGAGUCUAAUACUAGACGAAACAGC [AAUACU] | 1.8942 ± 0.0003 | 1.833 ± 0.0049
16 | GCUGUCACCGGUGUAUUACCCUAGUGGUCGACCGGUCUGAUGAGUCUUAUAGAAGACGAAACAGC [UAUAGA] | 1.892 ± 0.0092 | 1.63 ± 0.019
17 | GCUGUCACCGGUGUAUUACCCUAGUGGUCGACCGGUCUGAUGAGUCUUAUAGCAGACGAAACAGC [UAUAGC] | 1.95 ± 0.009 | 1.83 ± 0.054
18 | GCUGUCACCGGUGUAUUACCCUAGUGGUCGACCGGUCUGAUGAGUCUUAUAGGAGACGAAACAGC [UAUAGG] | 1.852 ± 0.017 | 1.43 ± 0.02
19 | GCUGUCACCGGUGUAUUACCCUAGUGGUCGACCGGUCUGAUGAGUCUCAUAGCAGACGAAACAGC [CAUAGC] | 1.923 ± 0.0099 | 1.86 ± 0.014
20 | GCUGUCACCGGUGUAUUACCCUAGUGGUCGACCGGUCUGAUGAGUCUCAUAGUAGACGAAACAGC [CAUAGU] | 2 ± 0.039 | 1.88 ± 0.019
21 | GCUGUCACCGGUGUAUUACCCUAGUGGUCGACCGGUCUGAUGAGUCUCAUAGGAGACGAAACAGC [CAUAGG] | 1.836 ± 0.015 | 1.43 ± 0.11
